Assay results published in IntAct's records for PubMed 31515488.

B1: Keratin, type II cytoskeletal 6A (Homo sapiens), P02538 (parent)
chain: MASTSTTIRSHSSSRRGFSANSARLPGVSRSGFSSVSVSRSRGSGGLGGACGGAGFGSRSLYGLGGSKRISIGGGSCAISGGYGSRAGGSYGFGGAGSGFGFGGGAGIGFGLGGGAGLAGGFGGPGFPVCPPGGIQEVTVNQSLLTPLNLQIDPTIQRVRAEEREQIKTLNNKFASFIDKVRFLEQQNKVLETKWTLLQEQGTKTVRQNLEPLFEQYINNLRRQLDSIVGERGRLDSELRGMQDLVEDFKNKYEDEINKRTAAENEFVTLKKDVDAAYMNKVELQAKADTLTDEINFLRALYDAELSQMQTHISDTSVVLSMDNNRNLDLDSIIAEVKAQYEEIAQRSRAEAESWYQTKYEELQVTAGRHGDDLRNTKQEIAEINRMIQRLRSEIDHVKKQCANLQAAIADAEQRGEMALKDAKNKLEGLEDALQKAKQDLARLLKEYQELMNVKLALDVEIATYRKLLEGEECRLNGEGVGQVNISVVQSTVSSGYGGASGVGSGLGLGGGSSYSYGSGLGVGGGFSSSSGRAIGGGLSSVGGGSSTIKYTTTSSSSRKSYKH
B2: F-BAR domain only protein 1 (Homo sapiens), O14526 (parent)
chain: MSYFGEHFWGEKNHGFEVLYHSVKQGPISTKELADFIRERATIEETYSKAMAKLSKLASNGTPMGTFAPLWEVFRVSSDKLALCHLELTRKLQDLIKDVLRYGEEQLKTHKKCKEEVVSTLDAVQVLSGVSQLLPKSRENYLNRCMDQERLRRESTSQKEMDKAETKTKKAAESLRRSVEKYNSARADFEQKMLDSALRFQAMEETHLRHMKALLGSYAHSVEDTHVQIGQVHEEFKQNIENVSVEMLLRKFAESKGTGREKPGPLDFEAYSAAALQEAMKRLRGAKAFRLPGLSRREREPEPPAAVDFLEPDSGTCPEVDEEGFTVRPDVTQNSTAEPSRFSSSDSDFDDEEPRKFYVHIKPAPARAPACSPEAAAAQLRATAGSLILPPGPGGTMKRHSSRDAAGKPQRPRSAPRTSSCAERLQSEEQVSKNLFGPPLESAFDHEDFTGSSSLGFTSSPSPFSSSSPENVEDSGLDSPSHAAPGPSPDSWVPRPGTPQSPPSCRAPPPEARGIRAPPLPDSPQPLASSPGPWGLEALAGGDLMPAPADPTAREGLAAPPRRLRSRKVSCPLTRSNGDLSRSLSPSPLGSSAASTALERPSFLSQTGHGVSRGPSPVVLGSQDALPIATAFTEYVHAYFRGHSPSCLARVTGELTMTFPAGIVRVFSGTPPPPVLSFRLVHTTAIEHFQPNADLLFSDPSQSDPETKDFWLNMAALTEALQRQAEQNPTASYYNVVLLRYQFSRPGPQSVPLQLSAHWQCGATLTQVSVEYGYRPGATAVPTPLTNVQILLPVGEPVTNVRLQPAATWNLEEKRLTWRLPDVSEAGGSGRLSASWEPLSGPSTPSPVAAQFTSEGTTLSGVDLELVGSGYRMSLVKRRFATGMYLVSC
B3: Protein FAM9B (Homo sapiens), Q8IZU0 (parent)
chain: MAAWGKKHAGKDPVRDECEERNRFTETREEDVTDEHGEREPFAETDEHTGANTKKPEDTAEDLTAKRKRMKMDKTCSKTKNKSKHALRKKQLKRQKRDYIHSLKLLNVLEEYITDEQKEEEEEEGEEEELIRIFQEQQKKWQQYRSVRRERLKEMKLLRDQFVKALEDFEDLCDRVFSDEDSELDN
partner: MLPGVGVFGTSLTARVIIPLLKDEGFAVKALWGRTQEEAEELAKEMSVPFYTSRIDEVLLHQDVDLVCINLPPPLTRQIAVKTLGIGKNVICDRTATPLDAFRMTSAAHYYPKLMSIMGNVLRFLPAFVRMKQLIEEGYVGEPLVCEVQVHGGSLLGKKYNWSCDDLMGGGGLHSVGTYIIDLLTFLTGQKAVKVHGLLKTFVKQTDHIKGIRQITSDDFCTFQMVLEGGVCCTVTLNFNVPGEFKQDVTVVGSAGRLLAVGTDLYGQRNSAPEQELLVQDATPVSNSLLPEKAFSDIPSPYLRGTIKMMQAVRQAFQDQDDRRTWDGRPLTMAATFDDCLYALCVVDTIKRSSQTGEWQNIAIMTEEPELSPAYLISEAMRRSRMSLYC
B4: Keratin-associated protein 3-2 (Homo sapiens), Q9BYR7 (parent)
chain: MDCCASRSCSVPTGPATTICSSDKSCRCGVCLPSTCPHTVWLLEPICCDNCPPPCHIPQPCVPTCFLLNSCQPTPGLETLNLTTFTQPCCEPCLPRGC
partner: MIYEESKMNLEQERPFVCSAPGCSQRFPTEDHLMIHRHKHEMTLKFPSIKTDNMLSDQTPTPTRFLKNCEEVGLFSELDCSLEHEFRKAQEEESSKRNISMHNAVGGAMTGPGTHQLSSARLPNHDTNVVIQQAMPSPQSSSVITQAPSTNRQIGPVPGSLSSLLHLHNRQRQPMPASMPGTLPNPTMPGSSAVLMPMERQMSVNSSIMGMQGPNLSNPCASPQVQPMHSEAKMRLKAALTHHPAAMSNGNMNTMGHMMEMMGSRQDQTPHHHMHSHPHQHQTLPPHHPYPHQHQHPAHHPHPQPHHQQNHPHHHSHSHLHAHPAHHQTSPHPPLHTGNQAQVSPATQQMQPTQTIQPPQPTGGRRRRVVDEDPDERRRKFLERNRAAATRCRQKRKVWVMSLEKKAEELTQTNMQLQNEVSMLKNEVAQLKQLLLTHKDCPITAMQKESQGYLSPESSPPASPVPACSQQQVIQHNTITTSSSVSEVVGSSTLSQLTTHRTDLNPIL

Variants of: B1
Details: with KRT17, Q04695
Chain of KRT17, Q04695 (Q04695 whole entry): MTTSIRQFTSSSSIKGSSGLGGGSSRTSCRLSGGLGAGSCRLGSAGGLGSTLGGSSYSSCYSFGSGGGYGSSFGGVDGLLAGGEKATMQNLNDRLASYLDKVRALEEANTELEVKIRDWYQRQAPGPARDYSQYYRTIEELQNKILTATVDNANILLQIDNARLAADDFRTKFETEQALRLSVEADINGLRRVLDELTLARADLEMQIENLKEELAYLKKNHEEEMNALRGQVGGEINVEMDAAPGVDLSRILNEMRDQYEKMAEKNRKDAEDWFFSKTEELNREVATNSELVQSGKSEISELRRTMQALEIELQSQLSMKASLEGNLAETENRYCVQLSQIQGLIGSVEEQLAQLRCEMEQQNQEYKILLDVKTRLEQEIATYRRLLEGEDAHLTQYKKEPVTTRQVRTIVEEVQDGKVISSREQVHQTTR

| Variant | effect of a mutation on the interaction |
| --- | --- |
| R559G | with no effect |
| A335T | with no effect |

Variants of: B1
Details: with tfp11_human TFIP11, Q9UBB9
Chain of tfp11_human TFIP11, Q9UBB9 (Q9UBB9 whole entry): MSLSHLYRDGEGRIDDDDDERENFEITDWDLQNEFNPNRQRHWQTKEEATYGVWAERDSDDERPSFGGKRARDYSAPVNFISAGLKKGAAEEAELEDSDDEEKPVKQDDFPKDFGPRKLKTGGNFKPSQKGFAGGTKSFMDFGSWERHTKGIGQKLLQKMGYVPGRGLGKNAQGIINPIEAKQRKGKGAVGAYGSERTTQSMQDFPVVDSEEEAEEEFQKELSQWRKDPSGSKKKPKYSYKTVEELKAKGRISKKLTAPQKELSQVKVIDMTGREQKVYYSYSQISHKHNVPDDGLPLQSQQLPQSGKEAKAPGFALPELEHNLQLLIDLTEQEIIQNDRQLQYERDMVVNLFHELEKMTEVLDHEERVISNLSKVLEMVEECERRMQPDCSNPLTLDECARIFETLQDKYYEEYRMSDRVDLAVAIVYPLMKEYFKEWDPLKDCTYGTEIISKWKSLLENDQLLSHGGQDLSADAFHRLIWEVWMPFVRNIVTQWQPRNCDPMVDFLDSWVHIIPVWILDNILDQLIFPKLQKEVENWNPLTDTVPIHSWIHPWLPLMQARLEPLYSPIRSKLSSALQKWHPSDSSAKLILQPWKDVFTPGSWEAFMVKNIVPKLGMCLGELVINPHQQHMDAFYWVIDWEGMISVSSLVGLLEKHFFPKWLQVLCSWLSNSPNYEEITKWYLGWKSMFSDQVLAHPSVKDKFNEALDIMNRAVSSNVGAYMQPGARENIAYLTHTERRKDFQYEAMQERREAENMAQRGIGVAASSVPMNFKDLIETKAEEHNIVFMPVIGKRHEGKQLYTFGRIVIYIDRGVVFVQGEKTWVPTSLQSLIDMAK

| Variant | effect of a mutation on the interaction |
| --- | --- |
| R559G | with no effect |
| A335T | with no effect |

Variants of: B1
Details: with KRT15, P19012
Chain of KRT15, P19012 (P19012 whole entry): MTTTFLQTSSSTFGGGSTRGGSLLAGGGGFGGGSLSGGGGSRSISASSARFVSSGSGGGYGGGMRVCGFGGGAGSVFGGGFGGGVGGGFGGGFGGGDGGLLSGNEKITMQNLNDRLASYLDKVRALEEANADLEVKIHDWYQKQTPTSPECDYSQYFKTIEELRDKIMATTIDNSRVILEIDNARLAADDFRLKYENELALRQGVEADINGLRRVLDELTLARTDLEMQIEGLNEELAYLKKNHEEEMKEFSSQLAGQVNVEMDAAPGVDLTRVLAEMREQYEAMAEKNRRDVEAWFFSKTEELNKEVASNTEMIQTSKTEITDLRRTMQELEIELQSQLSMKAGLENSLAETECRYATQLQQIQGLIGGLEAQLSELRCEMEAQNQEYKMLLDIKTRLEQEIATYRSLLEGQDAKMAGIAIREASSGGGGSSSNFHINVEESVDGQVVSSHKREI

| Variant | effect of a mutation on the interaction |
| --- | --- |
| R559G | with no effect |
| A335T | with no effect |

Variants of: B2
Details: with ptk6_human PTK6, Q13882

| Variant | effect of a mutation on the interaction |
| --- | --- |
| E423G | with no effect |

Variants of: B2
Details: with exos5_human EXOSC5, Q9NQT4
Chain of exos5_human EXOSC5, Q9NQT4 (Q9NQT4 whole entry): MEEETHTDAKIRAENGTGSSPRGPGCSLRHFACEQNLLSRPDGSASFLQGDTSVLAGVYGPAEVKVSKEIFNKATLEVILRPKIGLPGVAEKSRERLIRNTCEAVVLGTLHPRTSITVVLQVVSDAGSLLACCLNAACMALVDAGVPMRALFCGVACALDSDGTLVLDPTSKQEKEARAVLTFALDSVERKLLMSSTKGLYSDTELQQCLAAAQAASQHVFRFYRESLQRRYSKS

| Variant | effect of a mutation on the interaction |
| --- | --- |
| E423G | with no effect |

Variants of: B3
Details: with gfod1_human GFOD1, Q9NXC2

| Variant | effect of a mutation on the interaction |
| --- | --- |
| R23H | with no effect |

Variants of: B4
Details: with creb5_human CREB5, Q02930

| Variant | effect of a mutation on the interaction |
| --- | --- |
| S8G | with no effect |
| R27C | with no effect |
